From publication PMC3548793 come the findings set out here.

The labels stand for the following.
T1: GFP-Sec13, P55735
T1 chain: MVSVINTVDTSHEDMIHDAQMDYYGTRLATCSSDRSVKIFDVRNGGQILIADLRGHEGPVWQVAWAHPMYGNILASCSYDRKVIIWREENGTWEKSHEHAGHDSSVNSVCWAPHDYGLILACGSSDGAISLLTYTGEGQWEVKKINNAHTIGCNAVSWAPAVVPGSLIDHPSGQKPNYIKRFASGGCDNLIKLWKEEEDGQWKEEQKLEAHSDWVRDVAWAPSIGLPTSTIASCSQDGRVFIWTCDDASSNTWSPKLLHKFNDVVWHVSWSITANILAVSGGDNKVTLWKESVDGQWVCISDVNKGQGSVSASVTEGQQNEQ

B1: FLAG-tagged wild type (WT) Sec31, O94979 S527A (protein)
chain: MKLKEVDRTAMQAWSPAQNHPIYLATGTSAQQLDATFSTNASLEIFELDLSDPSLDMKSCATFSSSHRYHKLIWGPYKMDSKGDVSGVLIAGGENGNIILYDPSKIIAGDKEVVIAQNDKHTGPVRALDVNIFQTNLVASGANESEIYIWDLNNFATPMTPGAKTQPPEDISCIAWNRQVQHILASASPSGRATVWDLRKNEPIIKVSDHSNRMHCSGLAWHPDVATQMVLASEDDRLPVIQMWDLRFASSPLRVLENHARGILAIAWSMADPELLLSCGKDAKILCSNPNTGEVLYELPTNTQWCFDIQWCPRNPAVLSAASFDGRISVYSIMGGSTDGLRQKQVDKLSSSFGNLDPFGTGQPLPPLQIPQQTAQHSIVLPLKKPPKWIRRPVGASFSFGGKLVTFENVRMPSHQGAEQQQQQHHVFISQVVTEKEFLSRSDQLQQAVQSQGFINYCQKKIDASQTEFEKNVWSFLKVNFEDDSRGKYLELLGYRKEDLGKKIALALNKVDGANVALKDSDQVAQADGEESPAAEEQLLGEHIKEEKEESEFLPSSGGTFNISVSGDIDGLITQALLTGNFESAVDLCLHDNRMADAIILAIAGGQELLARTQKKYFAKSQSKITRLITAVVMKNWKEIVESCDLKNWREALAAVLTYAKPDEFSALCDLLGTRLENEGDSLLQTQACLCYICAGNVEKLVACWTKAQDGSHPLSLQDLIEKVVILRKAVQLTQAMDTSTVGVLLAAKMSQYANLLAAQGSIAAALAFLPDNTNQPNIMQLRDRLCRAQGEPVAGHESPKIPYEKQQLPKGRPGPVAGHHQMPRVQTQQYYPHGENPPPPGFIMHGNVNPNAAGQLPTSPGHMHTQVPPYPQPQPYQPAQPYPFGTGGSAMYRPQQPVAPPTSNAYPNTPYISSASSYTGQSQLYAAQHQASSPTSSPATSFPPPPSSGASFQHGGPGAPPSSSAYALPPGTTGTLPAASELPASQRTGPQNGWNDPPALNRVPKKKKMPENFMPPVPITSPIMNPLGDPQSQMLQQQPSAPVPLSSQSSFPQPHLPGGQPFHGVQQPLGQTGMPPSFSKPNIEGAPGAPIGNTFQHVQSLPTKKITKKPIPDEHLILKTTFEDLIQRCLSSATDPQTKRKLDDASKRLEFLYDKLREQTLSPTITSGLHNIARSIETRNYSEGLTMHTHIVSTSNFSETSAFMPVLKVVLTQANKLGV
B2: FLAG-tagged wild type (WT) Sec31, O94979 S527A; S799A; T1165A (protein)
chain: B1 chain with S799A, T1165A
B3: FLAG-tagged wild type (WT) Sec31, O94979 S799A (protein)
chain: B1 chain with A527S, S799A
B4: FLAG-tagged wild type (WT) Sec31, O94979 S527A; S799A (protein)
chain: B1 chain with S799A

Substitutions are numbered along the chain they refer to. In names and notes the source's numbering stands.

In the first experiment the target is GFP-tagged Sec23, Q15436. The experiment is described as follows: co-immunoprecipitation (anti-GFP beads) and western blotting, mean of three experiments. The settings on record: chain shown with the change; HEK293 cells co-transfected; parent: est. 1.0; read off a plot.
GFP-tagged Sec23, Q15436, sequence (Q15436 whole entry): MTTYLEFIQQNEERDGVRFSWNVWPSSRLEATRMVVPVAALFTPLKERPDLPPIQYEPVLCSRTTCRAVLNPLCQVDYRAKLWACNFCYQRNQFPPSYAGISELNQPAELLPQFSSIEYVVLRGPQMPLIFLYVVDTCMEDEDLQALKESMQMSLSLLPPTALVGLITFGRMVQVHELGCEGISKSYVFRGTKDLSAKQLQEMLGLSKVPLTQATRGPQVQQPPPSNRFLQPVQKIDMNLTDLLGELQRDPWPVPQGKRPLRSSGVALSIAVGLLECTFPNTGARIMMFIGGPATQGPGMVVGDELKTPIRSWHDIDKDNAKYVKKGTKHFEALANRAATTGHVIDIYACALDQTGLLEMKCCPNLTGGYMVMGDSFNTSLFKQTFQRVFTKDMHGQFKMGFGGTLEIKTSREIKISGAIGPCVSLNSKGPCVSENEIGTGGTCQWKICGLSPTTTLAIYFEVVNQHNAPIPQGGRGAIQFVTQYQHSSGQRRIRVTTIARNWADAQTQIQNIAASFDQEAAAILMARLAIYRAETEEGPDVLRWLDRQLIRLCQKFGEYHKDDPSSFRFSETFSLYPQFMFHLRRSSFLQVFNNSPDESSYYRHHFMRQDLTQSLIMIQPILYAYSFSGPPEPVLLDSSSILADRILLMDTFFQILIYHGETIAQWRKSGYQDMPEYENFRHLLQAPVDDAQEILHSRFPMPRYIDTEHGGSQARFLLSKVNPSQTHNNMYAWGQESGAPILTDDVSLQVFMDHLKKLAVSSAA
As to B1, the ratio to parent amounted to 0.9.
Same read-out and setting: next, B2: 2.3; B3: 1.5.

The next experiment deals with GFP-tagged Sec23, Q15436. The experiment is described as follows: co-immunoprecipitation (anti-GFP beads) and western blotting, single blot quantified. The settings on record: chain shown with the change; HEK293 cells co-transfected; parent: 1. On the technique in general: In western blotting, separated proteins are transferred to a membrane and probed.
Regarding B1, the ratio to parent is 1.
Same read-out and setting: as for B2, the figure is 2.3.
Turning to B3, the ratio to parent was determined as 1.4.

The target of the next experiment is T1, GFP-Sec13, P55735. The experiment is described as follows: co-immunoprecipitation and western blotting. The following applies: chain shown with the change;; parent: 0.8.
With B1, the other: normalized ratio of co-IP'ed Sec31 was 1.
Consider B4, for which the other: normalized ratio of co-IP'ed Sec31 came out at 1.2.
The same measure, in the same setting: as for B2, the figure is 1.4; as for B3, 1.
